These results are taken from patent US20200040101A1 (ASKGENE PHARMA, published 2020).

The target in one test is T1, Claudin-1.
T1 construct: expressed on transiently transfected HEK 293 cells
The test can be described thus: FACS, transfected HEK 293 cells. A general note: A flow cytometer gives signals particle by particle.

The next test addresses T2, Claudin-2.
T2 construct: expressed on transiently transfected HEK 293 cells; the sheet prints only the number after Claudin-1
T2 sequence (P57739 whole entry, species assumed, looked up): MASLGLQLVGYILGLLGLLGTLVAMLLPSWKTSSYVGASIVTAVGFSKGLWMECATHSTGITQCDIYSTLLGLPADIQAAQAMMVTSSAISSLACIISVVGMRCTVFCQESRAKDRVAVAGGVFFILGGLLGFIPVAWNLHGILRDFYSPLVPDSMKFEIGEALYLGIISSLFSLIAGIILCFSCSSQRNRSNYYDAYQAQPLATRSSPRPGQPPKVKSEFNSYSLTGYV
The test can be described thus: FACS, transfected HEK 293 cells.

Another test has as its target T3, Claudin-3.
T3 construct: expressed on transiently transfected HEK 293 cells; the sheet prints only the number after Claudin-1
The test can be described thus: FACS, transfected HEK 293 cells.

For another test, the target named is T4, Claudin-4.
T4 construct: expressed on transiently transfected HEK 293 cells; the sheet prints only the number after Claudin-1
The test can be described thus: FACS, transfected HEK 293 cells.

In a further test the target is T5, Claudin-5.
T5 construct: expressed on transiently transfected HEK 293 cells; the sheet prints only the number after Claudin-1
T5 sequence (O00501 whole entry, species assumed, looked up): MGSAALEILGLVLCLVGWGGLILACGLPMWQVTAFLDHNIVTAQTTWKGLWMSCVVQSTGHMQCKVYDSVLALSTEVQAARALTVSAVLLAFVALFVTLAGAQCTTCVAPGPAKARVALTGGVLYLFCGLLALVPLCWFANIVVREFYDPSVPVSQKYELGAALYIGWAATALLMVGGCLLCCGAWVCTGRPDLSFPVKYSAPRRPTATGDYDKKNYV
The test can be described thus: FACS, transfected HEK 293 cells.

In another test the target is T6, Claudin-8.
T6 construct: expressed on transiently transfected HEK 293 cells; the sheet prints only the number after Claudin-1
The test can be described thus: FACS, transfected HEK 293 cells.

The next test addresses T7, Claudin-9.
T7 construct: expressed on transiently transfected HEK 293 cells; the sheet prints only the number after Claudin-1
The test can be described thus: FACS, transfected HEK 293 cells.

The target in the next test is T8, Claudin-10.
T8 construct: expressed on transiently transfected HEK 293 cells; the sheet prints only the number after Claudin-1
T8 sequence (P78369 1-228, species assumed, looked up): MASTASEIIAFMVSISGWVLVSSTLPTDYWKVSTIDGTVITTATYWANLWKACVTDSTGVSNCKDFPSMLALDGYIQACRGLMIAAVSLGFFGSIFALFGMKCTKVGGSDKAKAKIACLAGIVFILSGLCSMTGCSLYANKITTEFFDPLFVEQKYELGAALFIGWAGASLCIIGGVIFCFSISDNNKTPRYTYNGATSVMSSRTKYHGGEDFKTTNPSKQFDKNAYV
The test can be described thus: FACS, transfected HEK 293 cells.

The target of a further test is T9, Claudin-11.
T9 construct: expressed on transiently transfected HEK 293 cells; the sheet prints only the number after Claudin-1
T9 sequence (O75508 whole entry, species assumed, looked up): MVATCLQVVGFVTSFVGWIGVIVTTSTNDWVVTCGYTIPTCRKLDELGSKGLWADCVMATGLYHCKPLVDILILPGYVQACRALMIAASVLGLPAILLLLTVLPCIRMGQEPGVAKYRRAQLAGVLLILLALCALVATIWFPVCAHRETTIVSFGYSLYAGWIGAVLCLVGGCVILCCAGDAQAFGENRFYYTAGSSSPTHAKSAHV
The test can be described thus: FACS, transfected HEK 293 cells.

Another test has as its target T10, Claudin-12.
T10 construct: expressed on transiently transfected HEK 293 cells; the sheet prints only the number after Claudin-1
The test can be described thus: FACS, transfected HEK 293 cells.

Another test addresses T11, Claudin-14.
T11 construct: expressed on transiently transfected HEK 293 cells; the sheet prints only the number after Claudin-1
The test can be described thus: FACS, transfected HEK 293 cells.

In a further test the target is T12, Claudin-16.
T12 construct: expressed on transiently transfected HEK 293 cells; the sheet prints only the number after Claudin-1
T12 sequence (Q9Y5I7 1-235, species assumed, looked up): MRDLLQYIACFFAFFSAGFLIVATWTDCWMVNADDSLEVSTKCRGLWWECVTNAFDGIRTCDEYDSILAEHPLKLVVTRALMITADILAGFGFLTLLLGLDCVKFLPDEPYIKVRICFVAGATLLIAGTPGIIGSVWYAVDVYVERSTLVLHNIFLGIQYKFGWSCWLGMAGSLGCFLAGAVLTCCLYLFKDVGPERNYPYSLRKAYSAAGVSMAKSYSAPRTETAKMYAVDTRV
The test can be described thus: FACS, transfected HEK 293 cells.

The next test concerns the target T13, Claudin-17.
T13 construct: expressed on transiently transfected HEK 293 cells; the sheet prints only the number after Claudin-1
T13 sequence (P56750 whole entry, species assumed, looked up): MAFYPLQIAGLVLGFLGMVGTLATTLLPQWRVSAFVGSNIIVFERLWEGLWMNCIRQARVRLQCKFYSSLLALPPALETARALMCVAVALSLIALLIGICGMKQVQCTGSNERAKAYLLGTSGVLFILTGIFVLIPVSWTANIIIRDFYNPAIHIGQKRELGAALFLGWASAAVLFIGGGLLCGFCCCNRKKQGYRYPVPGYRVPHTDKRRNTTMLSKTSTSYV
The test can be described thus: FACS, transfected HEK 293 cells.

In a further test the target is T14, Claudin-19.
T14 construct: expressed on transiently transfected HEK 293 cells; the sheet prints only the number after Claudin-1
T14 sequence (Q8N6F1 whole entry, species assumed, looked up): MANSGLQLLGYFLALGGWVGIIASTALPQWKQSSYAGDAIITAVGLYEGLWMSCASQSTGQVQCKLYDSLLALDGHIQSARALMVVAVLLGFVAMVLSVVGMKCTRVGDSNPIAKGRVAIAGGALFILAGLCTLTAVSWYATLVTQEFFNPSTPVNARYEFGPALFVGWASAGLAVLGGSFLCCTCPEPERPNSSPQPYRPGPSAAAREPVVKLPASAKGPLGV
The test can be described thus: FACS, transfected HEK 293 cells.

The target in a further test is T15, Claudin-22.
T15 construct: expressed on transiently transfected HEK 293 cells; the sheet prints only the number after Claudin-1
The test can be described thus: FACS, transfected HEK 293 cells.

A further test addresses T16, Claudin-23.
T16 construct: expressed on transiently transfected HEK 293 cells; the sheet prints only the number after Claudin-1
T16 sequence (Q96B33 1-292, species assumed, looked up): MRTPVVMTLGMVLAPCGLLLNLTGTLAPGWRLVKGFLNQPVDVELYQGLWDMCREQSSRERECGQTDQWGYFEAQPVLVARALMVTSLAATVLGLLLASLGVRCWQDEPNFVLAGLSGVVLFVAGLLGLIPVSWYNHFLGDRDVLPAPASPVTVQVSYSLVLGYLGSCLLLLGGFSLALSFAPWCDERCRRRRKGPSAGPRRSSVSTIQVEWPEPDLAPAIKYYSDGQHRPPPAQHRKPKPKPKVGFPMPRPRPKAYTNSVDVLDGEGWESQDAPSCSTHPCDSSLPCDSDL
The test can be described thus: FACS, transfected HEK 293 cells.

A further test has as its target T17, Claudin-34.
T17 construct: expressed on transiently transfected HEK 293 cells; the sheet prints only the number after Claudin-1
The test can be described thus: FACS, transfected HEK 293 cells.

The target of test [1] is T18, CLDN 7 expressed on HEK 293 cells (UniProt O95471 1-211, limits assumed).
T18 construct: whole, on cells
T18 sequence (looked up): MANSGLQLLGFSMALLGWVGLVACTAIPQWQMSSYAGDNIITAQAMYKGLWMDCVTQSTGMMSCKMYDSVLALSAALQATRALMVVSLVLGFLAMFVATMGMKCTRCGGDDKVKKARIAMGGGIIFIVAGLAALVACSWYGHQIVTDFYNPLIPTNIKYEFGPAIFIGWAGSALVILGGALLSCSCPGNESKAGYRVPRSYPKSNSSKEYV
The test can be described thus: FACS, transfected HEK 293 cells.

Test [2] has as its target T19, human Claudin 18.2 (CLDN18.2) expressed on cells (human, UniProt P56856-2 1-261).
T19 construct: whole, on cells; also called CLD18.2; CLD18A2
The test can be described thus: FACS, HEK 293 cells expressing CLDN18.2.

For test [3], the target named is T19, human Claudin 18.2 (CLDN18.2) expressed …. The test can be described thus: FACS, transfected HEK 293 cells, first 18.2 column.
For test [4] the target is unchanged. The test can be described thus: FACS, transfected HEK 293 cells, second 18.2 column.
The target is the same in test [5]. The test can be described thus: FACS, hybridoma supernatant of the first fusion, AF 647 anti-IgG.

B1: ASK589-B (antibody, human IgG1, kappa, V domains shown)
VH: EVQLVESGGGLVKPGGSLRLSCAVSGFYFNRGYWICWVRQAPGKGLEWIGCIDTGSGVPYYANWAKGRFTISRHTSKTTLTLQMNSLRAEDTASYFCARNSDSIYFNIWGPGTLVTVSS
VL: DIVMTQSPSSLSASVGDRVTITCQASQSIGGYISWYQQKPGKAPKLLIYKASTLASGVPSRFSGSGSGTDFTLTISSLQPEDFATYYCQNYAGVSIYGAVFGGGTKVVIKR
notes: Humanized rabbit antibody (from Clone 46; HC5M1 with LC1M1); also called Molecule B
Regarding B1, the MFI with Claudin-1 is 22.8; with Claudin-2 it was 21.3; in the test with Claudin-3, 23.8; with Claudin-4, 22; with Claudin-5 it was 20.3; with Claudin-8, 21.4. For the same molecule, the MFI with Claudin-9 turned out to be 21.8; with Claudin-10, 23; with Claudin-11 it was 20.9; with Claudin-12, 20.7; with Claudin-14, 21.7; in the test with Claudin-16, 24.5. Besides, the MFI with Claudin-17 is 21.8; with Claudin-19 it was 21; in the test with Claudin-22, 29.1; with Claudin-23, 22; in the test with Claudin-34 it was 22.3; in test [1], 22.6. Besides, the MFI in test [3] is 3870; in test [4], 4050. For the same molecule, the binding result in test [1] was “no binding”. The EC50 (read off the curve) (as a rule, the concentration that produces a half-maximal response) in [2] is around 0.3 µg/mL.

B2: 30B5 (mouse hybridoma subclone antibody) (antibody, V domains shown)
VH: EVKLEESGGGLVQPGGSMKLSCVASGFTFSNYWMNWVRQSPEKGLEWVAEIRLKSKNYATHYAESVKGRFTISRDDSIGSVYLQMNNLRAEDTGIYYCARGHYGTNYGDYWGQGTSVTVSS
VL: DIVMTQSPSSLTVTAGEKVTVSCKSSQSLFNSGNQKHYLTWYQQKPGQPPKLLIYRASTRESGVPDRFTGSGSGTDFTLTIRNVQAEDLAVYYCQNDYSFPLTFGAGTKLELK
notes: also remade as chimeric antibody with human IgG1 and kappa
As for B2, the binding result in test [5] is “binds”.
